Columns and labels:
semenogelin I = semenogelin I (UniProt P04279)
semenogelin II = semenogelin II (UniProt Q02383)
semenogelin II, sequence (Q02383 24-582): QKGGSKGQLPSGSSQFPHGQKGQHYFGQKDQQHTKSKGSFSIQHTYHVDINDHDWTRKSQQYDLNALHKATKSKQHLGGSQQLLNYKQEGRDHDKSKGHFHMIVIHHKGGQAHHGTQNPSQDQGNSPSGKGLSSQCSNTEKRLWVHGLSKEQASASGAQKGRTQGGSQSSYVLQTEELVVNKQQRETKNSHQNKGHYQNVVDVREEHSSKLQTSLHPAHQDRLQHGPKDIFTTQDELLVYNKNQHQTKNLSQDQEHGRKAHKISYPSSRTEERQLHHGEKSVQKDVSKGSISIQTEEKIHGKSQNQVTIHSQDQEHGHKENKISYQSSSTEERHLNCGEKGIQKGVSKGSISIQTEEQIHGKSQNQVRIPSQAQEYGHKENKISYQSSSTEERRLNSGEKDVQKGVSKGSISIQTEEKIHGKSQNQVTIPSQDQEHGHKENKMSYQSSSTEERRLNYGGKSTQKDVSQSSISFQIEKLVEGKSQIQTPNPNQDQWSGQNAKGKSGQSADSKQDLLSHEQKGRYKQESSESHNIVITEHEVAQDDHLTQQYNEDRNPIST

semenogelin I, sequence (P04279 24-462): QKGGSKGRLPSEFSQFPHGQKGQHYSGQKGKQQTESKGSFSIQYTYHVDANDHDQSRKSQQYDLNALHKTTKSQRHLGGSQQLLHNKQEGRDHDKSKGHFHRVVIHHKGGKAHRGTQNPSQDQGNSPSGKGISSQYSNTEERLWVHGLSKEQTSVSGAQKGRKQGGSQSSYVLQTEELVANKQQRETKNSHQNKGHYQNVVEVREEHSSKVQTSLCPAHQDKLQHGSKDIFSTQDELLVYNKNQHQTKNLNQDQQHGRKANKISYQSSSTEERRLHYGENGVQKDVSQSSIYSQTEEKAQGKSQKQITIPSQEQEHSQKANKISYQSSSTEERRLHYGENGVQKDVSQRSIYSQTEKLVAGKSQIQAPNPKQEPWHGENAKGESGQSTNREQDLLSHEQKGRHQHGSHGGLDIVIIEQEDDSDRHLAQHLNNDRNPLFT

human glandular kallikrein 2
number of cleavage sites sequenced (cleavage sites) (semenogelin I): 4
proteolytic cleavage (fragments by HPLC) (semenogelin I): Cleavage of either Sg I or Sg II with hK2 results in generation of a multitude of peptides
number of cleavage sites sequenced (cleavage sites) (semenogelin II): 7
proteolytic cleavage (fragments by HPLC) (semenogelin II): Cleavage of either Sg I or Sg II with hK2 results in generation of a multitude of peptides
